Results on ten molecules are retold here after patent US20200157217A1 (SYSTIMMUNE, published 2020).

The target in experiment [1] is T1, human CD3 Delta/Epsilon Fc fusion protein (human, UniProt P04234 22-105; P07766 23-126).
T1 construct: Construct limits and Fc are not described; also called Human CD3 Delta-Epsilon Fc ("Knobs-into-hole"-KnH)
The experiment can be described thus: Octet (bio-layer interferometry), bivalent kdis. A general note: In BLI a coated tip is dipped into the sample, and binding shifts an interference pattern.

In the next experiment the target is Cyno T cell line. As to the kind of experiment: FACS, B cell culture supernatant on the cynomolgus T cell line (HSC-F per paragraph 87).
The target of experiment [2] is T2, human CD3 Gamma/Epsilon Fc fusion protein (human, UniProt P09693 23-116; P07766 23-126).
T2 construct: Construct limits and Fc are not described; also called Gamma-Epsilon Fc (KnH)
The experiment can be described thus: Octet (bio-layer interferometry), bivalent kdis; antigen printed 'Epsilon-Gamma', taken as the human Gamma/Epsilon Fc that paragraph 95 names for FIG. 8.

Experiment [3] addresses T3, human CD3 (Delta, Gamma, Epsilon) on the human T cell line Jurkat or on purified human CD3+ T cells (human, UniProt P07766 23-207; P09693 23-182; P04234 22-171).
T3 construct: whole, on cells; On cells CD3 sits in the TCR complex
The experiment can be described thus: FACS, antibody titration on Jurkat cells. On the technique in general: A flow cytometer gives signals particle by particle.

For experiment [4], the target named is T2, human CD3 Gamma/Epsilon Fc fusion …. As to the kind of experiment: Octet (bio-layer interferometry), bivalent kdis; antigen printed 'Human δ/γ - Fc', taken as the Gamma/Epsilon Fc that paragraph 95 names for FIG. 8.
The target in experiment [5] is T3, human CD3 (Delta, Gamma, Epsilon) on …. The experiment can be described thus: FACS, antibody titration on Jurkat cells. The source holds these as a separate data set.

Positions count from the first letter of the chain named. Read-outs that look alike come from different tables or passages of the source.

T1 sequence (P04234 22-105, stated change not applied, chain 1 of 2): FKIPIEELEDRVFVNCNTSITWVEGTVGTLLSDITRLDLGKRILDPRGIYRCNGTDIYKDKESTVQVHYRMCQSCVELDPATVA
T1 sequence (P07766 23-126, stated change not applied, chain 2 of 2): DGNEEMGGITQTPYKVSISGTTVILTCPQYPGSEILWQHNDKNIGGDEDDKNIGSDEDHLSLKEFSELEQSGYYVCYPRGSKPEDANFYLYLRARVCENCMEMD
T2 sequence (P09693 23-116, chain 1 of 2): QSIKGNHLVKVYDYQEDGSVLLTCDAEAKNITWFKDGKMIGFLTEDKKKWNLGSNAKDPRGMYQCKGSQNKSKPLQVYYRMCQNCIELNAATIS
T2 sequence (P07766 23-126, chain 2 of 2): as the sequence (P07766 23-126, stated change not applied, chain 2 of 2) above
T3 sequence (P07766 23-207, stated change not applied, chain 1 of 3): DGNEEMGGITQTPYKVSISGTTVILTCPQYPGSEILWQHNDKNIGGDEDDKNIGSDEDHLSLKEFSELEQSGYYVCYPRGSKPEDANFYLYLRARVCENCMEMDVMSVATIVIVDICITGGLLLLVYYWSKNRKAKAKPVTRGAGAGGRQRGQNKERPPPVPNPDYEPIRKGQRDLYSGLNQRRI
T3 sequence (P09693 23-182, stated change not applied, chain 2 of 3): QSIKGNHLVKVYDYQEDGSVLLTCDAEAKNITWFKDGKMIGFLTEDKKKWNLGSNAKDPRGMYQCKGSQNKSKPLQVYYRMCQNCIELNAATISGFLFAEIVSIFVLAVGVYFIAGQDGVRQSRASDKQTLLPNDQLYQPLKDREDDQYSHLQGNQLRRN
T3 sequence (P04234 22-171, stated change not applied, chain 3 of 3): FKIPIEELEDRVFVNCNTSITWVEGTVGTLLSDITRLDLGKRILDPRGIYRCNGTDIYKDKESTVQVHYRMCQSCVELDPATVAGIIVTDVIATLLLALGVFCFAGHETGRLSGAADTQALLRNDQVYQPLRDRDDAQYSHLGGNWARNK

B1: 299F6 1.1 (antibody, human IgG1, kappa, V domains shown)
VH: EVQLVESGGGLVQPGGSLRLSCAASGFTISSNAMSWVRQAPGKGLEWIGVITGRDITYYANWAKGRFTISRDNSKNTLYLQMNSLRAEDTAVYYCARDGGSSAITSNNIWGQGTLVTVSS
VL: DIQMTQSPSTLSASVGDRVTITCQASESISSWLAWYQQKPGKAPKLLIYEASKLASGVPSRFSGSGSGTEFTLTISSLQPDDFATYYCQGYFYFISRSYVNAFGGGTKVEIKR
notes: sheet: mAb '299F6 1.1', format 'humanized'; also called 299F6 humanized
One may read the koff as the rate constant with which the complex falls apart. Lower therefore signals a long-lived complex. The molecule B1 came in with an off-rate (koff) in experiment [1] of 0.0006 s⁻¹.

B2: 480C8 1.1 (antibody, human IgG1, kappa, V domains shown)
VH: B1 VH with F27I, T28D, I29L, N61S, T105N, N107K
VL: B1 VL with S98T
notes: sheet: mAb '480C8 1.1', format 'humanized'; also called 480C8 humanized
B2 had a koff in experiment [1] of 0.0005 s⁻¹.

B3: 284A10 1.1 (antibody, human IgG1, kappa, V domains shown)
VH: B1 VH with S31T, N61S
VL: B1 VL with I2V, Q3V, T22N, S98T, A102S
notes: sheet: mAb '284A10 1.1', format 'humanized'; also called 284A10 humanized
Take B3: in experiment [1], the koff was determined as 0.00053 s⁻¹.

B4: 284A10 (antibody, V domains shown)
VH: QSLEESGGRLVTPGTPLTLTCTVSGFTISTNAMSWVRQVPGKGLEWIGVITGRDITYYASWAKGRFTISKTSSTTVDLKMTSLTAEDSATYFCARDGGSSAITSNNIWGPGTLVTVSS
VL: DVVMTQTPPSVSAAVGGTVTIKCQASESISSWLAWYQQKPGQPPKLLIYEASKLASGVPSRFSGSGSGTEFTLTISDLECADAATYYCQGYFYFISRTYVNSFGGGTEVEFK
Molecule B4 gave an MFI with Cyno T cell line of 615 MFI.

B5: 480A7 chimeric rabbit/human IgG antibody (antibody, V domains shown)
VH: B4 VH with F26I, T27D, I28L, T30S, V39A, N105K
VL: DVVMTQTPASVEAAVGGTVTINCQASESISSWLAWYQQRPGQPPKLLIYEASKLASGVPSRFSGSGSGTEFTLTISDLECADAATYYCQGYFYFISRSYVNAFGGGTEVVFKR
Take B5: the koff in experiment [2] was determined as 0.0006 s⁻¹; in experiment [1] it was 0.00066 s⁻¹. In addition, the binding result in experiment [3] is reported as “binds”.

B6: 299F6 chimeric rabbit/human IgG antibody (antibody, V domains shown)
VH: B4 VH with T30S, V39A, S60N
VL: B5 VL with A9S, E12S, R39K
B6: the koff came out at 0.00049 s⁻¹ in experiment [1] and 0.00045 s⁻¹ in experiment [4].

B7: 295E9 (antibody, V domains shown)
VH: B4 VH with F26I, T27D, I28L, T30S, V39A, T56N, N105K
VL: B4 VL with P9A, S12E, K22N, K39R, S63K, T98S, S102A, E110V, F111V
B7 displayed an MFI with Cyno T cell line of 549 MFI.

B8: 284A10 chimeric rabbit/human IgG antibody (antibody, V domains shown)
VH: B4 VH
VL: B5 VL with A9P, E12S, N22K, R39K, S98T, A102S, V110E
As to B8, the koff in experiment [1] came to 0.0005 s⁻¹; in experiment [4], 0.0013 s⁻¹.

B9: 480C8 chimeric rabbit/human IgG antibody (antibody, V domains shown)
VH: B4 VH with F26I, T27D, I28L, T30S, V39A, T103N, N105K, P110Q
VL: B5 VL with A9S, E12S, R39K, S98T, V110E
notes: also called 48008
As to B9, the binding result in experiment [5] is reported as “binds”. Moreover, the koff in experiment [1] came to 0.00042 s⁻¹; in experiment [4] it was 0.00054 s⁻¹.

B10: 295E9 chimeric rabbit/human IgG antibody (antibody, V domains shown)
VH: B4 VH with F26I, T27D, I28L, T30S, V39A, T56N, N105K
VL: B5 VL with S63K, F111V
As to B10, the off-rate constant (koff) in experiment [1] and in experiment [4] was 0.0052 s⁻¹ in each case.
